Molecular target: human cytoplasmic dynein-1 complex (recombinant, SNAPf tag on the heavy chain) (human) (UniProt Q14204)

B1: human full-length Lissencephaly-1 (LIS1), unlabelled (natural protein)
chain: MVLSQRQRDELNRAIADYLRSNGYEEAYSVFKKEAELDVNEELDKKYAGLLEKKWTSVIRLQKKVMELESKLNEAKEEFTSGGPLGQKRDPKEWIPRPPEKYALSGHRSPVTRVIFHPVFSVMVSASEDATIKVWDYETGDFERTLKGHTDSVQDISFDHSGKLLASCSADMTIKLWDFQGFECIRTMHGHDHNVSSVAIMPNGDHIVSASRDKTIKMWEVQTGYCVKTFTGHREWVRMVRPNQDGTLIASCSNDQTVRVWVVATKECKAELREHEHVVECISWAPESSYSSISEATGSETKKSGKPGPFLLSGSRDKTIKMWDVSTGMCLMTLVGHDNWVRGVLFHSGGKFILSCADDKTLRVWDYKNKRCMKTLNAHEHFVTSLDFHKTAPYVVTGSVDQTVKVWECR
B1 gave a mean duration of plus-end tracking events of dynein on growing microtubules with EB1 and dynactin after addition of LIS1 of 14 s.

Reference: paper PMC5413349
